Results: paper PMC9891525 (2023)

Biological target: biotinylated recombinant SARS-CoV-2 wild type spike RBD (SARS-CoV-2, UniProt P0DTC2 319-541)
Experiment: FACS

B1: REGN10987 scFv displayed on the surface of HEK 293T cells (scFv, V domains shown)
VH: QVQLVESGGGVVQPGRSLRLSCAASGFTFSNYAMYWVRQAPGKGLEWVAVISYDGSNKYYADSVKGRFTISRDNSKNTLYLQMNSLRTEDTAVYYCASGSDYGDYLLVYWGQGTLVTVSS
VL: QSALTQPASVSGSPGQSITISCTGTSSDVGGYNYVSWYQQHPGKAPKLMIYDVSKRPSGVSNRFSGSKSGNTASLTISGLQSEDEADYYCNSLTSISTWVFGGGTKLTVL
B1 was tested, and the Kd was 8.33 nM.
